Test results from publication PMC12706091.

Target: recombinant Flag-DIC1B (rFlag-DIC1B)
Test: pull-down; 2 μg Flag-DIC1B on anti-Flag magnetic beads, 2 μg each of Myc-ANXA7 and TIA1 added; NP40 lysis buffer with 0.5 M L-arginine, 4 °C; with or without 1 mM CaCl2; western blot

- fold change of TIA1 pulled down with DIC1B, with Myc-ANXA7 against without: 4 fold
B1: recombinant TIA1 (rTIA1) (natural protein)
chain: MEDEMPKTLYVGNLSRDVTEALILQLFSQIGPCKNCKMIMDTAGNDPYCFVEFHEHRHAAAALAAMNGRKIMGKEVKVNWATTPSSQKKDTSSSTVVSTQRSQDHFHVFVGDLSPEITTEDIKAAFAPFGRISDARVVKDMATGKSKGYGFVSFFNKWDAENAIQQMGGQWLGGRQIRTNWATRKPPAPKSTYESNTKQLSYDEVVNQSSPSNCTVYCGGVTSGLTEQLMRQTFSPFGQIMEIRVFPDKGYSFVRFNSHESAAHAIVSVNGTTIEGHVVKCYWGKETLDMINPVQQQNQIGYPQPYGQWGQWYGNAQQIGQYMPNGWQVPAYGMYGQAWNQQGFNQTQSSAPWMGPNYGVQPPQGQNGSMLPNQPSGYRVAGYETQ
